Measured values as given in US20060257938A1, “Method of screening for drugs that block ligand binding to a lipid binding protein” (priority 2005, published 2006).
Changes are numbered by the printed parent chain. Names may count otherwise.

B1: A73I, L72A: FABP probe clone, substitutions A73I, L72A vs SEQ ID NO: 2 (protein, listed as Rattus norvegicus)
chain: AFDGTWKVDRNENYEKFMEKMGINVVKRKLGAHDNLKLTITQEGNKFTVKESSNFRNIDVVFELGVDFAYSAIDGTELTGTWTMEGNKLVGKFKRVDNGKELIAVREISGNELIQTYTYEGVEAKRIFKKE
modifications: PEPTIDE (1)...(131) wild-type rat intestinal fatty acid binding protein
B2: 14L 72G (protein, listed as Rattus norvegicus)
chain: B1 chain with Y14L, A72G, I73A
modifications: PEPTIDE (1)...(131) wild-type rat intestinal fatty acid binding protein
B3: 104F, 72A (protein, listed as Rattus norvegicus)
chain: B1 chain with I73A, A104F
modifications: PEPTIDE (1)...(131) wild-type rat intestinal fatty acid binding protein
B4: 11M, 72A (protein, listed as Rattus norvegicus)
chain: B1 chain with N11M, I73A
modifications: PEPTIDE (1)...(131) wild-type rat intestinal fatty acid binding protein
B5: 23Y, 72A (protein, listed as Rattus norvegicus)
chain: B1 chain with I23Y, I73A
modifications: PEPTIDE (1)...(131) wild-type rat intestinal fatty acid binding protein
B6: 104G, 72A (protein, listed as Rattus norvegicus)
chain: B1 chain with I73A, A104G
modifications: PEPTIDE (1)...(131) wild-type rat intestinal fatty acid binding protein
B7: 55Q, 72A (protein, listed as Rattus norvegicus)
chain: B1 chain with F55Q, I73A
modifications: PEPTIDE (1)...(131) wild-type rat intestinal fatty acid binding protein
B8: 55V, 72A (protein, listed as Rattus norvegicus)
chain: B1 chain with F55V, I73A
modifications: PEPTIDE (1)...(131) wild-type rat intestinal fatty acid binding protein
B9: 82V, 72A (protein, listed as Rattus norvegicus)
chain: B1 chain with I73A, W82V
modifications: PEPTIDE (1)...(131) wild-type rat intestinal fatty acid binding protein

Experiment: Probe fluorescence ratio response to linoleic acid relative to ADIFAB2
Assay type: binding
Conditions: Table 3
In short: (§1)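 Each fatty acid's response was expressed relative to ADIFAB2, the rI-FABP-L72A probe, as ΔR/ΔRreference. ΔR is the change in the background-corrected two-wavelength intensity ratio R=Fλ1/Fλ2 from its analyte-free baseline R0. Emission was read near about 420-480 nm for unbound and about 495-580 nm for FFA-bound probe.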

Molecule	DR/DRAD2 LA
B1	−0.04

Same assay, conditions: response relative to ADIFAB2

Molecule	DR/DR LA
B2	0.817
B3	0.486
B4	0.576
B5	0.442
B6	0.665
B7	0.474
B8	0.432
B9	0.519

Experiment: Probe fluorescence ratio response to arachidonic acid relative to ADIFAB2
Assay type: binding
Conditions: Table 3; Arachidonic acid
In short: as §1

Molecule	DR/DRAD2 AA
B1	0.38

Same assay, conditions: arachidonic acid; response relative to ADIFAB2

Molecule	DR/DR AA
B2	0.873
B3	0.686
B4	0.697
B5	0.492
B6	0.866
B7	0.600
B8	0.581
B9	0.757

Experiment: Probe fluorescence ratio response to oleic acid relative to ADIFAB2
Assay type: binding
Conditions: Table 3
In short: as §1

Molecule	DR/DRAD2 OA
B1	−0.04

Same assay, conditions: response relative to ADIFAB2

Molecule	DR/DR OA
B2	0.730
B3	0.462
B4	0.463
B5	0.412
B6	0.691
B7	0.536
B8	0.468
B9	0.461

Experiment: Probe fluorescence ratio response to linolenic acid relative to ADIFAB2
Assay type: binding
Conditions: Table 3
In short: as §1

Molecule	DR/DRAD2 LNA
B1	0.03

Same assay, conditions: response relative to ADIFAB2

Molecule	DR/DR LNA
B2	0.886
B3	0.436
B4	0.651
B5	0.443
B6	0.687
B7	0.492
B8	0.477
B9	0.456

Experiment: Probe fluorescence ratio response to palmitic acid relative to ADIFAB2
Assay type: binding
Conditions: Table 3
In short: as §1

Molecule	DR/DRAD2 PA
B1	−0.04

Same assay, conditions: response relative to ADIFAB2

Molecule	DR/DR PA
B2	0.334
B3	0.263
B4	0.543
B5	0.281
B6	0.650
B7	0.428
B8	0.374
B9	0.345
